Results taken from patent US20260028403A1 (Zymeworks, published 2026).

T1: Mouse CLDN18 A2.1 (mouse, UniProt P56857 10-264)
T1 construct: on transfected HEK293-6E cells; also called Mouse CLDN18 2.1; mouse CLDN18.2 ortholog
T1 chain: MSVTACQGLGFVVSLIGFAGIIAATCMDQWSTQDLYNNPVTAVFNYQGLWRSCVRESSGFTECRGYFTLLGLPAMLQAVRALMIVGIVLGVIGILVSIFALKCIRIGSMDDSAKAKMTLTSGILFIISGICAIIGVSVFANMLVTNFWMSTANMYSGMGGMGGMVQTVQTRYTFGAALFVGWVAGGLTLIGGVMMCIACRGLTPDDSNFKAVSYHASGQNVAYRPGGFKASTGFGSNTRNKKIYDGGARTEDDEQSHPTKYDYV

T2: Cynomolgus monkey CLDN18 (cynomolgus monkey)
T2 construct: on transfected HEK293-6E cells; also called Cyno CLDN18; cyno CLDN18.2 ortholog
T2 chain: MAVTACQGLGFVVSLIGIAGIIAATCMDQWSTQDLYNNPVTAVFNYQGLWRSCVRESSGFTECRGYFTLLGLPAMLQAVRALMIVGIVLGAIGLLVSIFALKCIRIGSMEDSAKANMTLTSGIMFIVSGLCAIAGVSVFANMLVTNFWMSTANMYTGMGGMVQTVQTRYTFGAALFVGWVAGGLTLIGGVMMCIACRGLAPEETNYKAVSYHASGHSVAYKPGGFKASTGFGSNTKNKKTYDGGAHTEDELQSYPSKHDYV


Columns and labels:
Mouse CLDN18 A2.1 = molecular target: T1, Mouse CLDN18 A2.1; assay: flow cytometry, HEK293-6E + mouse CLDN18, 4PL fit
Protocol: (§1) The purified rabbit chimeric and humanized constructs were assessed for binding to HEK293-6E cells transfected with human, cynomolgus monkey, or mouse CLDN18.2 orthologs (TABLE 12) by flow cytometry. […] Constructs were also assessed for binding to HEK293-6E cells transfected with human CLDN18.1.

Human CLDN18.2 [1] = molecular target: T3, Human CLDN18.2 (human); assay: flow cytometry, HEK293-6E + human CLDN18.2, 4PL fit
T3 construct: on transfected HEK293-6E cells or native on SNU 601 cells
Protocol: as §1

Cynomolgus monkey CLDN18 = molecular target: T2, Cynomolgus monkey CLDN18; assay: flow cytometry, HEK293-6E + cyno CLDN18, 4PL fit
Protocol: as §1

[2] = molecular target: T4, Recombinant human/cynomolgus/rhesus macaque CD28 mouse IgG2a Fc fusion protein (Acro Biosystems) (human/cynomolgus/rhesus macaque, UniProt P10747 19-152); assay: SPR, in-format anti-CD28 variants, huCD28
T4 construct: bought; also called huCD28

[3] = molecular target: T5, Recombinant human CD3 epsilon/delta heterodimer, his tag protein (Acro Biosystems) (human, UniProt P07766 23-126; P04234 22-105); assay: SPR Biacore T200, CD3 e/d-his on CM5, construct injected, 1:1 model;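 note: measured at 25 °C in HEPES-buffered saline with EDTA and Tween 20 at pH 7.4, values are means of three independent runs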
T5 construct: bought

[4] = molecular target: T4, Recombinant human/cynomolgus/rhesus …; assay: SPR Biacore T200, CD28-mIgG2a Fc on CM5, construct injected, 1:1 model;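 note: fc fusion captured by amine coupling, run at 25 °C in HEPES buffer pH 7.4, association 140-500 s then dissociation 600-1200 s, values averaged over three independent runs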
[5] = molecular target: T6, CD28 on primary human T cells (human, UniProt P10747 19-220); assay: cell-based or functional assay
Human CLDN18.2 [6] = molecular target: T3, Human CLDN18.2; assay: flow cytometry, SNU 601 cells
[7] = molecular target: T6, CD28 on primary human T cells; assay: cell-based or functional assay; remark: listed apart in the source

Bmax (Mouse CLDN18 A2.1) | EC50 (Mouse CLDN18 A2.1) [nM] | Bmax (Human CLDN18.2 [1]) | EC50 (Human CLDN18.2 [1]) [nM] | Bmax (Cynomolgus monkey CLDN18) | EC50 (Cynomolgus monkey CLDN18) [nM] | Kd [3] [nM] | koff [3] [s⁻¹] | kon [3] [M⁻¹ s⁻¹] | Kd [4] [nM] | koff [4] [s⁻¹] | kon [4] [M⁻¹ s⁻¹] | Bmax (Human CLDN18.2 [6]) [MFI] | EC50 (Human CLDN18.2 [6]) [nM] | Binder | further results
1640 | 0.87 | 2070 | 1.29 | 1660 | 0.48 | – | – | – | – | – | – | – | – | v35777 (antibody, human IgG1, V domains shown, also called parental rabbit chimeric; rabbit-human chimeric IgG1/kappa anti-CLDN18.2) VH: QSLEESGGRLVTPGTPLTLTCTVSGIDLSSNPMIWVRQAPGKGLQYIGIIDTDGSTYYASWAKGRFTGSKTSTTVDLKITSPTTEDTATYFCARRLHGSSNGYYDDLWGQGTLVTISS VL: DGVMTQTPSSVSAAVGGTVTIKCQASQSIYSYLSWYQQKPGQRPKLLIYKASTLASGVPSRFKGSGSGTEFTLTISGVQCDDAATYYCQQGYTVTNVDKNTFGGGTEVVVK | –
1540 | 0.8 | 2040 | 1.54 | 1410 | 0.24 | – | – | – | – | – | – | – | – | v37407 (antibody, human IgG1, V domains shown, human IgG1-based monoclonal antibody; also called H4-L4) VH: QVQLVESGGGLVQPGGSLRLSCSVSGIDLSSNPMIWVRQAPGKGLEYIGIIDTDGSTYYADWAKGRFTISKDSTTVYLQMNSLRAEDTAVYYCARRLHGSSNGYYDDLWGQGTLVTVSS VL: DGQMTQSPSSVSASVGDRVTITCQASQSIYSYLSWYQQKPGQRPKLLIYKASTLASGVPSRFSGSGSGTDFTLTISSVQPEDFATYYCQQGYTVTNVDKNTFGGGTKVEIK | –
– | – | – | – | – | – | 74.6 | 0.0123 | 164000 | 22.2 | 0.0021 | 95500 | 9140 | 47.5 | v37638 (trispecific antibody, human IgG1, kappa, L234A L235A, wild type huTN228 Fab; Het Fc, FcKO; also called Cldn18.2xCD3xCD28 trispecific) heavy 1: not shown heavy 2: QVQLVESGGGLVQPGGSLRLSCSVSGIDLSSNPMIWVRQAPGKGLQYIGIIDTDGSTYYADWAKGRFTISKDSTTVYLQINSPRAEDTAVYYCARRLHGSSNGYYDDLWGQGTLVTVSSGGGGSGGGGSGGGGSGGGGSDGQMTQSPSSVSASVGDRVTITCQASQSIYSYLSWYQQKPGQRPKLLIYKASTLASGVPSRFSGSGSGTDFTLTISSVQPEDFATYYCQQGYTVTNVDKNTFGGGTKVEIKAAEPKSSDKTHTCPPCPAPEAAGGPSVFLFPPKPKDTLMISRTPEVTCVVVSVSHEDPEVKFNWYVDGVEVHNAKTKPREEQYNSTYRVVSVLTVLHQDWLNGKEYKCKVSNKALPAPIEKTISKAKGQPREPQVYVLPPSRDELTKNQVSLLCLVKGFYPSDIAVEWESNGQPENNYLTWPPVLDSDGSFFLYSKLTVDKSRWQQGNVFSCSVMHEALHNHYTQKSLSLSPG light: DIQMTQSPSSLSASVGDRVTITCRASESVEYYVTSLMQWYQQKPGKAPKLLIYAASNVDSGVPSRFSGSGSGTDFTLTISSLQPEDIATYYCQQSRKVPFTFGGGTKVEIKRTVAAPSVFIFPPSDEQLKSGTASVVCLLNNFYPREAKVQWKVDNALQSGNSQESVTEQDSKDSTYSLSSTLTLSKADYEKHKVYACEVTHQGLSSPVTKSFNRGEC | Fold-change from WT [2]: 1 fold; Kd [2]: 22.2 nM; koff [2]: 0.0021 s⁻¹; kon [2]: 95500 M⁻¹ s⁻¹; IL-2 maximum cytokine, T cells alone [5]: 1750 pg/mL; IL-2 maximum cytokine, T cells with SNU 601 cells [5]: 3710 pg/mL; TNFa maximum cytokine, T cells alone [5]: 115 pg/mL; TNFa maximum cytokine, T cells with SNU 601 cells [5]: 670 pg/mL; IC50, T cell-dependent cytotoxicity on SNU 601 [7]: 0.00017 nM; Maximum Killing (%), SNU 601 [7]: 88.2%
– | – | – | – | – | – | 92.5 | 0.0143 | 157000 | 288 | 0.0107 | 40400 | 6600 | 30.1 | v37635 (trispecific antibody, human IgG1, lambda, L234A L235A, Het Fc, FcKO; also called CD3xCD28xCldn18.2 trispecific) heavy 1: EVQLVESGGGLVQPGGSLRLSCAASGVTFNYYGMSWIRQAPGKGLEWVASITSSGGRIYYPDSVKGRFTISRENTQKTLYLQMNSLRAEDTAVYYCTLDGRDGWVAYWGQGTLVTVSSASTKGPSVFPLAPSSKSTSGGTAALGCLVKDYFPEPVTVSWNSGALTSGVHTFPAVLQSSGLYSLSSVVTVPSSSLGTQTYICNVNHKPSNTKVDKKVEPKSCDKTHTCPPCPAPEAAGGPSVFLFPPKPKDTLMISRTPEVTCVVVSVSHEDPEVKFNWYVDGVEVHNAKTKPREEQYNSTYRVVSVLTVLHQDWLNGKEYKCKVSNKALPAPIEKTISKAKGQPREPQVYVYPPSRDELTKNQVSLTCLVKGFYPSDIAVEWESNGQPENNYKTTPPVLDSDGSFALVSKLTVDKSRWQQGNVFSCSVMHEALHNHYTQKSLSLSPGGGGGSGDIQMTQSPSSLSASVGDRVTITCRASESVEYYVTSLMQWYQQKPGKAPKLLIYAASNVDSGVPSRFSGSGSGTDFTLTISSLQPEDIATYYCQQSRKVPFTFGGGTKVEIKGGGGSGGGGSGGGGSGGGGSQVQLQESGPGLVKPSETLSLTCAVSGFSLTSYGVHWIRQPPGKGLEWLGVIWPGGGTNFNSALMSRLTISEDTSKNQVSLKLSSVTAADTAVYYCARDRAYGNYLYAMDYWGQGTLVTVSS heavy 2: QVQLVESGGGLVQPGGSLRLSCSVSGIDLSSNPMIWVRQAPGKGLQYIGIIDTDGSTYYADWAKGRFTISKDSTTVYLQINSPRAEDTAVYYCARRLHGSSNGYYDDLWGQGTLVTVSSGGGGSGGGGSGGGGSGGGGSDGQMTQSPSSVSASVGDRVTITCQASQSIYSYLSWYQQKPGQRPKLLIYKASTLASGVPSRFSGSGSGTDFTLTISSVQPEDFATYYCQQGYTVTNVDKNTFGGGTKVEIKAAEPKSSDKTHTCPPCPAPEAAGGPSVFLFPPKPKDTLMISRTPEVTCVVVSVSHEDPEVKFNWYVDGVEVHNAKTKPREEQYNSTYRVVSVLTVLHQDWLNGKEYKCKVSNKALPAPIEKTISKAKGQPREPQVYVLPPSRDELTKNQVSLLCLVKGFYPSDIAVEWESNGQPENNYLTWPPVLDSDGSFFLYSKLTVDKSRWQQGNVFSCSVMHEALHNHYTQKSLSLSPG light: NFMLTQPHSVSESPGKTVTISCKRNTGNIGSNYVNWYQQHEGSSPTTIIYRNDKRPDGVSDRFSGSIDRSSKSASLTISNLKTEDEADYFCQSYSSGFIFGGGTKLTVLGQPKAAPSVTLFPPSSEELQANKATLVCLISDFYPGAVTVAWKADSSPVKAGVETTTPSKQSNNKYAASSYLSLTPEQWKSHRSYSCQVTHEGSTVEKTVAPTECS | –
– | – | – | – | – | – | 296 | 0.0155 | 52200 | 27.3 | 0.00212 | 77800 | 9770 | 26.4 | v37640 (trispecific antibody, human IgG1, kappa, L234A L235A, Het Fc, FcKO; also called Cldn18.2xCD28xCD3 trispecific) heavy 1: QVQLQESGPGLVKPSETLSLTCAVSGFSLTSYGVHWIRQPPGKGLEWLGVIWPGGGTNFNSALMSRLTISEDTSKNQVSLKLSSVTAADTAVYYCARDRAYGNYLYAMDYWGQGTLVTVSSASTKGPSVFPLAPSSKSTSGGTAALGCLVKDYFPEPVTVSWNSGALTSGVHTFPAVLQSSGLYSLSSVVTVPSSSLGTQTYICNVNHKPSNTKVDKKVEPKSCDKTHTCPPCPAPEAAGGPSVFLFPPKPKDTLMISRTPEVTCVVVSVSHEDPEVKFNWYVDGVEVHNAKTKPREEQYNSTYRVVSVLTVLHQDWLNGKEYKCKVSNKALPAPIEKTISKAKGQPREPQVYVYPPSRDELTKNQVSLTCLVKGFYPSDIAVEWESNGQPENNYKTTPPVLDSDGSFALVSKLTVDKSRWQQGNVFSCSVMHEALHNHYTQKSLSLSPGGGGGSGNFMLTQPHSVSESPGKTVTISCKRNTGNIGSNYVNWYQQHEGSSPTTIIYRNDKRPDGVSDRFSGSIDRSSKSASLTISNLKTEDEADYFCQSYSSGFIFGGGTKLTVLGGGGSGGGGSGGGGSGGGGSEVQLVESGGGLVQPGGSLRLSCAASGVTFNYYGMSWIRQAPGKGLEWVASITSSGGRIYYPDSVKGRFTISRENTQKTLYLQMNSLRAEDTAVYYCTLDGRDGWVAYWGQGTLVTVSS heavy 2: QVQLVESGGGLVQPGGSLRLSCSVSGIDLSSNPMIWVRQAPGKGLQYIGIIDTDGSTYYADWAKGRFTISKDSTTVYLQINSPRAEDTAVYYCARRLHGSSNGYYDDLWGQGTLVTVSSGGGGSGGGGSGGGGSGGGGSDGQMTQSPSSVSASVGDRVTITCQASQSIYSYLSWYQQKPGQRPKLLIYKASTLASGVPSRFSGSGSGTDFTLTISSVQPEDFATYYCQQGYTVTNVDKNTFGGGTKVEIKAAEPKSSDKTHTCPPCPAPEAAGGPSVFLFPPKPKDTLMISRTPEVTCVVVSVSHEDPEVKFNWYVDGVEVHNAKTKPREEQYNSTYRVVSVLTVLHQDWLNGKEYKCKVSNKALPAPIEKTISKAKGQPREPQVYVLPPSRDELTKNQVSLLCLVKGFYPSDIAVEWESNGQPENNYLTWPPVLDSDGSFFLYSKLTVDKSRWQQGNVFSCSVMHEALHNHYTQKSLSLSPG light: DIQMTQSPSSLSASVGDRVTITCRASESVEYYVTSLMQWYQQKPGKAPKLLIYAASNVDSGVPSRFSGSGSGTDFTLTISSLQPEDIATYYCQQSRKVPFTFGGGTKVEIKRTVAAPSVFIFPPSDEQLKSGTASVVCLLNNFYPREAKVQWKVDNALQSGNSQESVTEQDSKDSTYSLSSTLTLSKADYEKHKVYACEVTHQGLSSPVTKSFNRGEC | –
